Measured values taken from paper PMC13042608, “Cross‐Platform Biosensing of Immune Receptors Using Peptide‐Functionalized Graphene” (Advanced Science, 2025).
Non-standard residues stand in square brackets, D forms with d. No end group written: not given here.

Molecular target: T1, WKYMVm‐NH2
T1 construct: synthetic hexapeptide agonist of formyl peptide receptors; also called W‐peptide; target peptide; source: synthetic peptide (custom peptide synthesis, purity >95%)
T1 peptide: WKYMV[dM]-NH2
Test: SPR; graphene-enhanced MP-SPR; peptide immobilised on PBA-graphene by amine coupling; nucleofected HEK293T cells (≈100 cells mL^-1) injected at 10 µL min^-1 for 20 min in C1 buffer pH 7.4; 22 °C
Details: one partner purified

B1: Formyl peptide receptor 2 (FPR2) on transfected HEK293T cells (receptor, human, UniProt P25090 1-351, looked up)
chain: METNFSTPLNEYEEVSYESAGYTVLRILPLVVLGVTFVLGVLGNGLVIWVAGFRMTRTVTTICYLNLALADFSFTATLPFLIVSMAMGEKWPFGWFLCKLIHIVVDINLFGSVFLIGFIALDRCICVLHPVWAQNHRTVSLAMKVIVGPWILALVLTLPVFLFLTTVTIPNGDTYCTFNFASWGGTPEERLKVAITMLTARGIIRFVIGFSLPMSIVAICYGLIAAKIHKKGMIKSSRPLRVLTAVVASFFICWFPFQLVALLGTVWLKEMLFYGKYKIIDILVNPTSSLAFFNSCLNPMLYVFVGQDFRERLIHSLPTSLERALSEDSAPTNDTAANSASPPAETELQAM
notes: formyl peptide receptor 2, human, gene amplified from human genomic DNA and cloned into pcDNA3.1(+); also called HEK FPR2; HEK‐FPR2; source: nucleofection with a GFP plasmid for biosensors), on living cells
B1 was tested, and the “SPR signal relative to the Control peptide (f-MEQQNK) surface” value was roughly 4 fold.
